In publication PMC4173072, “A truncated form of the Carbon catabolite repressor 1 increases cellulase production in Trichoderma reesei”:

Biological target: CREI-96 (truncated Carbon catabolite repressor 1, Cre1-96) (Trichoderma reesei Rut-C30, UniProt G0RB08 1-96)
Test: competition; 2000 nM protein; 50-, 100-, 200-fold competitor against N1; bands unchanged; GST elution buffer, 10 min at 22 °C; non-denaturing PAGE; salt and pH not stated
Settings: protein: recombinant; tags: GST fusion (37 kDa), thrombin-cleaved before use; label: unlabelled; blunt

Sequence of CREI-96 (truncated Carbon catabolite repressor 1, Cre1-96) (G0RB08 entry or part of it): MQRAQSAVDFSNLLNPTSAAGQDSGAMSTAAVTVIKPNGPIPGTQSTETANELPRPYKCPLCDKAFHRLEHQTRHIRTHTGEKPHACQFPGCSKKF

B1: mutated cold competitor RG221/RG222 (dsDNA)
DNA 1: CCAACGGCTTGTTGGGTTGCAGAAGCAACGGCAAAGCCCAACTTCCCAACGTTTGTTTCT
DNA 2: AGAAACAAACGTTGGGAAGTTGGGCTTTGCCGTTGCTTCTGCAACCCAACAAGCCGTTGG
- binding result: no binding
